We go through two proteins from article PMC3177975.

What is called Km is the substrate concentration at which the rate is half of its maximum. For orientation: kcat means the number of substrate molecules converted per active site and unit of time at saturation. A word on the kcat/Km: it is the turnover number divided by the Michaelis constant.

What all share (settings): amino acid activation with ATP; no EF-P stated
Substrate in data set [1]: NCCC[C@@H](N)CC(=O)O
Description: steady-state kinetics of amino acid activation. Format: biochemical, Escherichia coli.

Substrate in data set [2]: NCCC[C@H](N)CC(=O)O
In words: steady-state kinetics of amino acid activation. Format: biochemical, Escherichia coli.

Substrate in the data set “purified protein”: NCCCC[C@H](N)C(=O)O
Description: purified protein.

B1: PoxA (Escherichia coli K-12) (protein)
chain: MSETASWQPSASIPNLLKRAAIMAEIRRFFADRGVLEVETPCMSQATVTDIHLVPFETRFVGPGHSQGMNLWLMTSPEYHMKRLLVAGCGPVFQLCRSFRNEEMGRYHNPEFTMLEWYRPHYDMYRLMNEVDDLLQQVLDCPAAESLSYQQAFLRYLEIDPLSADKTQLREVAAKLDLSNVADTEEDRDTLLQLLFTFGVEPNIGKEKPTFVYHFPASQASLAQISTEDHRVAERFEVYYKGIELANGFHELTDAREQQQRFEQDNRKRAARGLPQHPIDQNLIEALKVGMPDCSGVALGVDRLVMLALGAETLAEVIAFSVDRA
As to B1, in data set [1], the Km is 213 ± 31 µM, the kcat was 0.6 ± 0.055 s⁻¹ and the specificity constant (kcat/Km) was found to be 2820 M⁻¹ s⁻¹. Also, in data set [2], the Km was found to be 6950 ± 1894 µM, the kcat turned out to be 0.0467 s⁻¹ and the kcat/Km came out at 6.67 M⁻¹ s⁻¹. In the data set “purified protein”, the Km is recorded as 8600 ± 1200 µM, the kcat was 0.25 s⁻¹ and the kcat/Km was 28.3 M⁻¹ s⁻¹.

B2: PoxA (Escherichia coli K-12; A298G) (protein)
chain: MSETASWQPSASIPNLLKRAAIMAEIRRFFADRGVLEVETPCMSQATVTDIHLVPFETRFVGPGHSQGMNLWLMTSPEYHMKRLLVAGCGPVFQLCRSFRNEEMGRYHNPEFTMLEWYRPHYDMYRLMNEVDDLLQQVLDCPAAESLSYQQAFLRYLEIDPLSADKTQLREVAAKLDLSNVADTEEDRDTLLQLLFTFGVEPNIGKEKPTFVYHFPASQASLAQISTEDHRVAERFEVYYKGIELANGFHELTDAREQQQRFEQDNRKRAARGLPQHPIDQNLIEALKVGMPDCSGVGLGVDRLVMLALGAETLAEVIAFSVDRA
As for B2, in data set [1], the Km is 414 ± 63 µM, the kcat was 0.283 ± 0.00833 s⁻¹ and the kcat/Km worked out at 683 M⁻¹ s⁻¹. Also, in the data set “purified protein”, the Km came out at 344 ± 44 µM, the kcat is 0.0633 s⁻¹ and the kcat/Km is 185 M⁻¹ s⁻¹.
